In patent US20040259122A1 (MICHIGAN STATE UNIVERSITY, published 2004):

T1: Ssn8 (activation domain fusion prey) (UniProt P47821 1-323)
T1 construct: also called Srb11; not shown: not described
T1 sequence (looked up): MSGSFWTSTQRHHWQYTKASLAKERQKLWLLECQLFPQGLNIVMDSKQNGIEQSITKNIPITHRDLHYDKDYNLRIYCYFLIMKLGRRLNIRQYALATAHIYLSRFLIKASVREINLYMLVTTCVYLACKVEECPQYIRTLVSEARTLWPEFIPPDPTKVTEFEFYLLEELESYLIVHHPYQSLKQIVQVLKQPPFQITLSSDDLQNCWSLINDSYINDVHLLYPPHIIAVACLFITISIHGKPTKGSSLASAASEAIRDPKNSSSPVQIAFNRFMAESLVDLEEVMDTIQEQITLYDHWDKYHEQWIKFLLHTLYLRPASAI

T2: Whi2 (activation domain fusion prey) (UniProt P12611 1-486)
T2 construct: not shown: not described
T2 sequence (looked up): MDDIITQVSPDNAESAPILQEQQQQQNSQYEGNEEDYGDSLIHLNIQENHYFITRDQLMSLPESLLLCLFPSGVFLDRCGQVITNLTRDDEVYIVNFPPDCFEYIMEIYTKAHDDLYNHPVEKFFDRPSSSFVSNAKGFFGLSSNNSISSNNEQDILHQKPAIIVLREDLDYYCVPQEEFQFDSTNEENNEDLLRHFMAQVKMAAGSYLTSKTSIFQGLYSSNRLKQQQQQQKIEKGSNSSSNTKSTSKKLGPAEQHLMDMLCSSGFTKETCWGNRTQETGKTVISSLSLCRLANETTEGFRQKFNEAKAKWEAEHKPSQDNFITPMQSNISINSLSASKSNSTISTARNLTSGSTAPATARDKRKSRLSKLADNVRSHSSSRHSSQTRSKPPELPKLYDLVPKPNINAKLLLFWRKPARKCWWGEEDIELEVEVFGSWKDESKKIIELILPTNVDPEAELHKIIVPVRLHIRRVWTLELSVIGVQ

T3: Tfb3 (activation domain fusion prey) (UniProt Q03290 1-321)
T3 construct: not shown: not described
T3 sequence (looked up): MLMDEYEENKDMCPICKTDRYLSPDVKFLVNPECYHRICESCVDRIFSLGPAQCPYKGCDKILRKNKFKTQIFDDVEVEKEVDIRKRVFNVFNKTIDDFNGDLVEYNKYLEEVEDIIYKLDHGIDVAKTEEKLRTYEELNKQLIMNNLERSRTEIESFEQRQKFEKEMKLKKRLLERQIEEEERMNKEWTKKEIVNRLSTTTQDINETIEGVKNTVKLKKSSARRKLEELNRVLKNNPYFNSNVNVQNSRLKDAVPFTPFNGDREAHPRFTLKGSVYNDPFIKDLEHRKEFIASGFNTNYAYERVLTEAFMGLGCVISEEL

T4: Fcp1 (activation domain fusion prey) (UniProt Q03254 1-732)
T4 construct: not shown: not described
T4 sequence (looked up): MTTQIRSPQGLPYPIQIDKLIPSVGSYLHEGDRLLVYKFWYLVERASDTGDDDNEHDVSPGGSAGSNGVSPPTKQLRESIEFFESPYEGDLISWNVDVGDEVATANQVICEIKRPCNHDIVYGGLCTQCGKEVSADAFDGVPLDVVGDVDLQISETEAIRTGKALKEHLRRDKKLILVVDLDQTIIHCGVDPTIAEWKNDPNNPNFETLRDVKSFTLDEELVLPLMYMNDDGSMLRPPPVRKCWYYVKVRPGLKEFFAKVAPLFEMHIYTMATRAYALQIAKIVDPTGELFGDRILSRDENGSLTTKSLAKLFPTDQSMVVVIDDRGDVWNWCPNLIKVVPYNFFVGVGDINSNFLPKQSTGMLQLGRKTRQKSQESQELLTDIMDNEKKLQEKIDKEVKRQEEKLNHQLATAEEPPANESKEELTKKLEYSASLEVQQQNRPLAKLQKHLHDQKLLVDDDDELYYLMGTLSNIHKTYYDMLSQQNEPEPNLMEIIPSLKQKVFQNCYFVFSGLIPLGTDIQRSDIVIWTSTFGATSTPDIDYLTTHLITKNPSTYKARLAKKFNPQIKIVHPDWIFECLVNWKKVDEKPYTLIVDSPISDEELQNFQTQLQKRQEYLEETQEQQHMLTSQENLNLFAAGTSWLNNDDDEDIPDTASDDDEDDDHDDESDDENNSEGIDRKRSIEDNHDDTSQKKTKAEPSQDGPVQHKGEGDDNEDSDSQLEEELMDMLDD

T5: YDR428c (activation domain fusion prey) (UniProt Q04066 1-261)
T5 construct: not shown: not described
T5 sequence (looked up): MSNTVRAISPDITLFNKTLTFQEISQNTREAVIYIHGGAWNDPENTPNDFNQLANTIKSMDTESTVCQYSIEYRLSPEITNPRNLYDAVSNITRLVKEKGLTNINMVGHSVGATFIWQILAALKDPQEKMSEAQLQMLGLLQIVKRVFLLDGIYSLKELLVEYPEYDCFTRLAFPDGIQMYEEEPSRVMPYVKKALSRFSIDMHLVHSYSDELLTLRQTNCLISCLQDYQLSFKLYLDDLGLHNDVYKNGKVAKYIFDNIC


What was measured:
Test in all cases: yeast two-hybrid, growth in the presence of 3-AT
[1] = target: T1, Ssn8 (activation domain fusion prey)
Description: (§1) Identification of proteins that interact specifically with the phosphorylated CTD. […] Proteins that interact specifically with the CTD-Kin28 (wildtype) but neither of the other two baits are considered phosphorylated CTD-interacting proteins. Yeast strains containing one of the three baits and a variety of preys (activation domain fusion proteins) were tested for their ability to grow in the presence of different concentration of 3-AT. The ability to grow in such medium indicates stable interactions between the bait(s) and the prey(s). The following proteins (numbered 1-7) are considered phosphorylated CTD-interacting proteins: Fcp1 (a phosphatase known to act on phosphorylated CTD), Ssn8 (or Srb11, a component of the RNA polymerase II holoenzyme), Tfb3 (a component of the RNA polymerase II holoenzyme), Whi2 (a protein involved in cellular growth and a component of a protein phosphatase complex containing the Psr1 catalytic subunit), and three novel proteins (YMR181c, YPL229w, and YDR428c) whose functional links to CTD phosphorylation are novel. In addition, previously known (i.e. Ccl1 and Pcl10) and unknown (YDL100c) Kin28-interacting proteins were also identified in this screen (A-C). Several putative phosphorylated CTD interacting proteins are not labeled due to the current lack of the sequence information.

[2] = target: T2, Whi2 (activation domain fusion prey)
Description: as §1

[3] = target: T3, Tfb3 (activation domain fusion prey)
Description: as §1

[4] = target: T4, Fcp1 (activation domain fusion prey)
Description: as §1

[5] = target: T5, YDR428c (activation domain fusion prey)
Description: as §1

Row | Binder | binding result [1] | binding result [2] | binding result [3] | binding result [4] | binding result [5]
1 | CTD fused to the wildtype Kin28 (pMK500) (other, CTD phosphorylated at the fifth residue (Ser5) by the tethered wildtype Kin28, also called CTD-Kin28 (wildtype); phosphorylated CTD) MKLLSSIEQACDICRLKKLKCSKEKPKCAKCLKNNWECRYSPKTKRSPLTRAHLTEVESRLERLEQLFLLIFPREDLDMILKMDSLQDIKALLTGLFVQDNVNKDAVTDRLASVETDMPLTLRQHRISATSSSEESSNKGQRQLTVSNYLFDDEDTPPNPKKEIELENLYFQGEFQYSPTSPSYSLTSPSYSPTSPSLTTMAMKVNMEYTKEKKVGEGTYAVVYLGCQHSTGRKIAIKEIKTSEFKDGLDMSAIREVKYLQEMQHPNVIELIDIFMAYDNLNLVLEFLPTDLEVVIKDKSILFTPADIKAWMLMTLRGVYHCHRNFILHRDLKPNNLLFSPDGQIKVADFGLARAIPAPHEILTSNVVTRWYRAPELLFGAKHYTSAIDIWSVGVIFAELMLRIPYLPGQNDVDQMEVTFRALGTPTDRDWPEVSSFMTYNKLQIYPPPSRDELRKRFIAASEYALDFMCGMLTMNPQKRWTAVQCLESDYFKELPPPSDPSSIKIRNVMAIPGGGRIFYPYDVPDYAGYPYDVPDYAGSYPYDVPDYAAQCGRSS | binds | binds | binds | binds | binds
2 | CTD fused to the mutant Kin28 (pDG502) (other, also called CTD-Kin28 mutant) MKLLSSIEQACDICRLKKLKCSKEKPKCAKCLKNNWECRYSPKTKRSPLTRAHLTEVESRLERLEQLFLLIFPREDLDMILKMDSLQDIKALLTGLFVQDNVNKDAVTDRLASVETDMPLTLRQHRISATSSSEESSNKGQRQLTVSNYLFDDEDTPPNPKKEIELENLYFQGEFQYSPTSPSYSLTSPSYSPTSPSLTTMAMKVNMEYTKEKKVGEGTYAVVYLGCQHSTGRKIAIKEIKTSEFKDGLDMSAIRQVKYLQEMQHPNVIELIDIFMAYDNLNLVLEFLPTDLEVVIKDKSILFTPADIKAWMLMTLRGVYHCHRNFILHRDLKPNNLLFSPDGQIKVADFGLARAIPAPHEILTSNVVTRWYRAPELLFGAKHYTSAIDIWSVGVIFAELMLRIPYLPGQNDVDQMEVTFRALGTPTDRDWPEVSSFMTYNKLQIYPPPSRDELRKRFIAASEYALDFMCGMLTMNPQKRWTAVQCLESDYFKELPPPSDPSSIKIRNVMAIPGGGRIFYPYDVPDYAGYPYDVPDYAGSYPYDVPDYAAQCGRSS | no binding | no binding | no binding | no binding | no binding
3 | Kin28 alone bait (pMK498) (other) MKLLSSIEQACDICRLKKLKCSKEKPKCAKCLKNNWECRYSPKTKRSPLTRAHLTEVESRLERLEQLFLLIFPREDLDMILKMDSLQDIKALLTGLFVQDNVNKDAVTDRLASVETDMPLTLRQHRISATSSSEESSNKGQRQLTVSNYLFDDEDTPPNPKKEIELENLYFQGEFQLTTMAMKVNMEYTKEKKVGEGTYAVVYLGCQHSTGRKIAIKEIKTSEFKDGLDMSAIREVKYLQEMQHPNVIELIDIFMAYDNLNLVLEFLPTDLEVVIKDKSILFTPADIKAWMLMTLRGVYHCHRNFILHRDLKPNNLLFSPDGQIKVADFGLARAIPAPHEILTSNVVTRWYRAPELLFGAKHYTSAIDIWSVGVIFAELMLRIPYLPGQNDVDQMEVTFRALGTPTDRDWPEVSSFMTYNKLQIYPPPSRDELRKRFIAASEYALDFMCGMLTMNPQKRWTAVQCLESDYFKELPPPSDPSSIKIRNVMAIPGGGRIFYPYDVPDYAGYPYDVPDYAGSYPYDVPDYAAQCGRSS | no binding | no binding | no binding | no binding | no binding
